From patent US20210284694A1 (published 2021)
Starred links: 1 amine or outer side, 2 acyl side, 3 side chain; linkers in the order of their positions; H or OH if unused. Positions of bridges follow the written chain, without caps; N, C: chain ends. Non-standard residues stand in square brackets, D forms with d. Phe(4-OMe) = COc1ccc(C[C@H](N[*:1])C(=O)[*:2])cc1; Trp(5-F) = N[C@@H](Cc1c[nH]c2ccc(F)cc12)C(=O)O; mXylylene = c1cc(C[*:1])cc(C[*:2])c1; αMeP = C[C@@]1(C(=O)O)CCCN1; Mpa = O=C(O)CCS

What was measured:
biotinylated PCSK9 [1] = molecular target: T1, biotinylated PCSK9 (UniProt Q8NBP7 31-692, limits assumed, biotinylated); experiment: method of the KD not told; tracer of the Alexa FRET Standard assay
T1 construct: also called europium-labeled PCSK9
T1 sequence (Q8NBP7 31-692 limits assumed): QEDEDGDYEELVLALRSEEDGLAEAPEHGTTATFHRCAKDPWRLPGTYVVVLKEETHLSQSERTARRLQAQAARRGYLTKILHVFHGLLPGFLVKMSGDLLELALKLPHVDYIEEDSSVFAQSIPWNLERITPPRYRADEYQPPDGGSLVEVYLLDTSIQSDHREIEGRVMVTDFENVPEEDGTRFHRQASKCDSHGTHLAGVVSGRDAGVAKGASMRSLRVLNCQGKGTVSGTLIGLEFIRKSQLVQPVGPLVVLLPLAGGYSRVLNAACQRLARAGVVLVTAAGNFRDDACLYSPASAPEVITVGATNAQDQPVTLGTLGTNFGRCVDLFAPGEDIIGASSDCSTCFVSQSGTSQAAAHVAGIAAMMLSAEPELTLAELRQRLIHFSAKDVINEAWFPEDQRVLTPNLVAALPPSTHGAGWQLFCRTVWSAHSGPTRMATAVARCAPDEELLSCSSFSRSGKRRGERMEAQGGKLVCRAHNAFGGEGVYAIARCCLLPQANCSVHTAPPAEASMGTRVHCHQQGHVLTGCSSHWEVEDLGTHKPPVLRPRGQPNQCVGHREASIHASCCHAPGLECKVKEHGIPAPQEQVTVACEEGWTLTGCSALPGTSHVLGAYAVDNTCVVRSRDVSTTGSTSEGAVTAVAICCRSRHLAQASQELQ

biotinylated PCSK9 [2] = molecular target: T1, biotinylated PCSK9; experiment: method of the KD not told; tracer of the Alexa FRET Plus assay

B1: Reagent A (peptide)
peptide: [Mpa]K(AlexaFluor647)G[Trp(5-F)][Trp(5-F)]DHY[αMeP]C-NH2
modifications: linker N-10 via mXylylene
notes: also called AlexaFluor647 (AF) tagged cyclic peptide; AF cyclic peptide
Kd (biotinylated PCSK9 [1]): 83 nM

B2: Reagent B (peptide)
peptide: [Mpa]K(AlexaFluor647)[dA][Trp(5-F)][Trp(5-F)]DH[Phe(4-OMe)][αMeP]C-NH2
modifications: linker N-10 via mXylylene
notes: as for B1
Kd (biotinylated PCSK9 [2]): 35 nM
